One may read the Tm as the temperature at the midpoint of the melting transition.

These results are taken from FireProtDB (doi:10.1021/bi00005a026).

For this data set the following is noted: Hordeum vulgare; pH 6.3; Thermal; Fluorescence; phosphate 10 mM; reversible: yes; whole UniProt chain shown.

B1: Subtilisin-chymotrypsin inhibitor-2A wild type, P01053 (protein)
chain: MSSVEKKPEGVNTGAGDRHNLKTEWPELVGKSVEEAKKVILQDKPEAQIIVLPVGTIVTMEYRIDRVRLFVDKLDNIAQVPRVG
Consider B1, for which the Tm is 46.6 °C and the “unfolding enthalpy (van 't Hoff)” value is 34.1 kcal/mol.
